We go through one molecule from patent US20170119790A1, “Agents, Uses and Methods” (CYTOGUIDE A/S, priority 2009, published 2017).

Assay [1] concerns the target T1, CD163 on peripheral blood dendritic cells (Homo sapiens, UniProt Q86VB7).
T1 construct: Freshly drawn peripheral whole blood samples or PBMC; endogenous in cells; host or cells: human peripheral blood monocytes, blood dendritic cells, monocyte-derived macrophages (healthy donors, buffy coats)
Briefly: Flow cytometry of CD163 expression on peripheral blood dendritic cells. It counts as cell-based. The source says:
Freshly drawn peripheral whole blood samples (approx. 3×10^6 cells) were stained with isotype-matched control antibody (Mouse IgG1 PE, k isotype control, MOPC-21, BD Pharmingen™, San Diego, Calif., USA) or a relevant antibody (anti-CD3 FITC, UCHT1, BD Biosciences, San Diego, Calif., USA; anti-CD11c FITC, KB90, DAKO A/S, Glostrup, Denmark; anti-CD14 FITC, RM052, 10Tests®, Beckman and Coulter, Marseille, France; anti-CD16 FITC, 3G8, BD Biosciences, San Diego, Calif., USA; anti-CD19 FITC, SJ25C1, BD Biosciences, San Diego, Calif., USA; anti-CD20 FITC, CAT 13.6E12, Diatec.com A/S, Oslo, Norway; anti-CD56 FITC, NCAM16.2, BD Biosciences, San Diego, Calif., USA; anti-CD91 FITC, A2MR-a2, BD Biosciences, San Diego, Calif.; anti-HLA-DR FITC, EDU-1, Diatec.com A/S, Oslo, Norway; anti-CD163 PE, MAC2-158, IQ Products, Groningen, The Netherlands; anti-CD163 PE, GHI/61, BD Biosciences, CA, USA; anti-ILT3/CD85k PE-Cy5, ZM3.8, IOTests®, Beckman and Coulter, Marseille, France; anti-HLA-DR PerCP, L234, BD Biosciences, San Diego, Calif.; anti-CD4 APC, EDU-2, Diatec.com A/S, Oslo, Norway; anti-CD14 APC, 18D11, Diatec.com A/S, Oslo, Norway) for 15 minutes at room temperature in the dark. […] For CD163 density quantitation, flow cytometric estimation of antibodies bound/cell (ABCs) was performed using Quantibrite PE beads (Becton Dickinson, San Jose, Calif., USA) as recommended by the manufacturer. […]
In general terms: A flow cytometer gives signals particle by particle.

The target of assay [2] is T2, human CD163 wt (Homo sapiens, UniProt Q86VB7).
T2 construct: a pcDNA5-FRT-humanCD163 plasmid harboring the full length human CD163 cDNA; expressed in transfected cells; host or cells: HEK 293, transient
T2 sequence (Q86VB7 42-1156): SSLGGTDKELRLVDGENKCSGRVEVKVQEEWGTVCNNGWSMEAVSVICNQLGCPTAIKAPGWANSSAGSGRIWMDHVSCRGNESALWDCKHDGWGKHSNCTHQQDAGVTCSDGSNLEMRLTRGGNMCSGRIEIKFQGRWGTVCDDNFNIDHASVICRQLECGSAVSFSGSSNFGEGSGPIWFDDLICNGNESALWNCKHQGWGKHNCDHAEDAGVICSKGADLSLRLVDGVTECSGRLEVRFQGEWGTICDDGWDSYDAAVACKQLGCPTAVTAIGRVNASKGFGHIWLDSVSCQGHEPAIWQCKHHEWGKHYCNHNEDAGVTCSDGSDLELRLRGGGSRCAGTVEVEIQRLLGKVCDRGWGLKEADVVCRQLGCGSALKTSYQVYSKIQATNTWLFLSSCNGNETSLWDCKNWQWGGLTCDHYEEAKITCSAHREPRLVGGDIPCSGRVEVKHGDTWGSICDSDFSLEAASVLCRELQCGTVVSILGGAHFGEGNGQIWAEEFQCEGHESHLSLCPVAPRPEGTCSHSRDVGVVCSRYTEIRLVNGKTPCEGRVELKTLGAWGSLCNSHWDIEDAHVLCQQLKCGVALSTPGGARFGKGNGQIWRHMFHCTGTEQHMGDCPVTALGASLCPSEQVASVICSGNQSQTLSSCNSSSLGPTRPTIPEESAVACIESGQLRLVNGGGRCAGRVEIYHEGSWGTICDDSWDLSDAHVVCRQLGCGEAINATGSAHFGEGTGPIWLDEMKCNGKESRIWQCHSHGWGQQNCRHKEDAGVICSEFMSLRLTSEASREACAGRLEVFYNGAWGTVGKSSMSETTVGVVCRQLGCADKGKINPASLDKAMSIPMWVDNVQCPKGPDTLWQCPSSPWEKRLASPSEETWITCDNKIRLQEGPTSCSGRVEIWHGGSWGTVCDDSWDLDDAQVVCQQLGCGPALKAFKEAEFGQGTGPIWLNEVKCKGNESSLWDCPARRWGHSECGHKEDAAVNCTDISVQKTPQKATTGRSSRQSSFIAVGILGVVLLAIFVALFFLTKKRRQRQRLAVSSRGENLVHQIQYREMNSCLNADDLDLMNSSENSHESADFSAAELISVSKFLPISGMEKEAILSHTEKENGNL
As to the kind of experiment: Western blotting of human CD163 and knock out mutants. It counts as binding. As for the experimental part: Each cell pellet was added 1 ml lysis buffer (10 mM Tris pH 8, 140 mM NaCl, 15 mM MgSO4, 1% Triton X-100) and incubated for 15 min at 4 °C with rotation. After centrifugation for 30 min at 6000 rpm the supernatants were sterile filtered.
90 μl of each of the supernatants were added 30 μl of 4×LDS sample buffer. 3×20 μl samples of each supernatant and 8 μl SeeBlue plus2 prestained marker were loaded on NuPage 4-12% Bis-Tris-Gels (Invitrogen, Taastrup, Denmark) and the SDS-PAGEs were run with MOPS running buffer according to instructions of the manufacturer (200 V constant for 50 min). Blotting to PVDF membranes (Invitrogen, Taastrup, Denmark) was done on an iBLOT device according to instructions of the manufacturer. After blotting the membranes were washed briefly in 1×PBS 0.1% Tween and blocked for 30 min in 1×PBS 2% Tween at room temperature with shaking. After blocking the membranes were washed 3×5 min in 1×PBS 0.1% Tween and incubated 1 hour with: (1) 10 ml 1 μg/ml polyclonal rabbit anti-human CD163; (2) 10 ml 1 μg/ml Mac2-158; (3) 10 ml 1:500 KN2/NRY-HRP all diluted in 1×PBS 0.1% Tween. The membranes were washed with 3×5 min 1×PBS 0.1% Tween again and incubated with: (1) 10 ml Goat anti-rabbit-HRP 1:1000 (AbD Serotec, Oxford, UK); or (2) 10 ml Goat anti-mouse-HRP 1:1000 (Dako, Glostrup, Denmark) for 1 hour. […]

Assay [3] has as its system TNF production of pro-inflammatory macrophages. Briefly: Inhibition of LPS induction of TNF production in in vitro matured pro-inflammatory macrophages. It counts as cell-based, human. As to conditions: compared with free dexamethasone / buffer, FIG. 30-31. As for the experimental part: Monocytes were obtained from MNC after isolation using Dynal Monocyte Negative
Monocytes were resuspended in RMPI 1640 medium (Sigma-Aldrich, Brøndby, Denmark) containing 20% fetal calf serum (FCS) supplemented with 100 ng/ml M-CSF (GenScript Corporation, New Jersey, USA) and penicillin/streptomycin (pen/strep) for 7 days. The first 3 days in Tissue Culture Flasks at 37° C. and 5% CO2. The monocytes were then detached from the flask by flushing and scraping. The monocytes were divided into smaller portions and further grown for four days. 0.9×10^5 cells per well were grown in 96 well tissue culture plates for TNF CBA use.
Subsequently, the macrophages were activated in RMPI 1640 containing 5% FCS, 1 ug/ml lipopolysaccaride (LPS) (Sigma-Aldrich, Brøndby, Denmark) and 20 ng/ml INF-gamma (Genscript Corporation, New Jersey, USA) for 18 hours making them pro-inflammatory.
The pro-inflammatory macrophages were stimulated with RMPI160, 5% FCS, 1 ug/ml LPS and 20 ng/ml INF-gamma containing either dexamethasone, Ab-dexamethasone or no drug.
To detect the change in soluble TNF-alpha concentration we used the Cytometry Bead Array Kit (BD Biosciences, New Jersey, USA). The media from the in vitro stimulated macrophages (described earlier) grown in 96 well tissue culture plates were analyzed according to the manufacturer's protocol.

T1 sequence (Q86VB7 42-1156): as above

B1: MAC2-158: anti-human CD163 murine mAb, binds SRCR domain 1, IQ Products; VH SEQ ID NO: 1, VL SEQ ID NO: 2 (antibody, V domains shown)
VH: DVQLQESGPGLVKPSQSLSLTCTVTGYSITSDYAWNWIRQFPGNKLEWMGYITYSGITNYNPSLKSQISITRDTSKNQFFLQLNSVTTEDTATYYCVSGTYYFDYWGQGTTLTVSS
VL: SVVMTQTPKSLLISIGDRVTITCKASQSVSSDVAWFQQKPGQSPKPLIYYASNRYTGVPDRFTGSGYGTDFTFTISSVQAEDLAVYFCGQDYTSPRTFGGGTKLEIKRA
modifications: Mac2-158 VH; Mac2-158 VL
As to B1, the “fraction of peripheral blood dendritic cells recognized (CD163 expressing)” value in assay [1] (CD14-ILT3+HLA-DR+ cells, whole blood) is 32.3%. In addition, the “MFI, reflecting the amount of CD163 receptors per cell” value in assay [1] (peripheral blood dendritic cells) was determined as 107.5. Further, the “binding in western blot” value in assay [2] is given as “bound”. The “effect on TNF production of macrophages” value in assay [3] is listed as “no effect different from buffer”.
